In this assay the target is ACM2 variant of AC fused to GFP (ACM2-GFP), encoded by plasmid pACM2-Gfp (Bordetella pertussis | not stated) (UniProt P0DKX7). Kind of assay: two-hybrid.

With “calmodulin (CaM) with a 6-histidine tag at its N-terminus and a tetra-cysteine tag at its C-terminus, encoded by plasmid pTCam (from UniProt P0DP23 1-149) (natural protein)”, the ß gal (Rel. Units) is 8 Rel. Units.

Values taken from PMC13334617.
